Biological target: the molecule itself
Assay: crystal structure

B1: Chloramphenicol acetyltransferase III (CATIII+GG construct) (enzyme)
chain: SGGNYTKFDVKNWVRREHFEFYRHRLPCGFSLTSKIDITTLKKSLDDSAYKFYPVMIYLIAQAVNQFDELRMAIKDDELIVWDSVDPQFTVFHQETETFSALSCPYSSDIDQFMVNYLSVMERYKSDTKLFPQGVTPENHLNISALPWVNFDSFNLNVANFTDYFAPIITMAKYQQEGDRLLLPLSVQVHHAVCDGFHVARFINRLQELCNSKLK
B1 was tested, and the “stoichiometry N” value was 3.
